Patent US20110076693

B1: Flag-Plk3 (protein)
chain: MEPAAGFLSPRPFQRAAAAPAPPAGPGPPPSALRGPELEMLAGLPTSDPGRLITDPRSGRTYLKGRLLGKGGFARCYEATDTETGSAYAVKVIPQSRVAKPHQREKILNEIELHRDLQHRHIVRFSHHFEDADNIYIFLELCSRKSLAHIWKARHTLLEPEVRYYLRQILSGLKYLHQRGILHRDLKLGNFFITENMELKVGDFGLAARLEPPEQRKKTICGTPNYVAPEVLLRQGHGPEADVWSLGCVMYTLLCGSPPFETADLKETYRCIKQVHYTLPASLSLPARQLLAAILRASPRDRPSIDQILRHDFFTKGYTPDRLPISSCVTVPDLTPPNPARSLFAKVTKSLFGRKKKSKNHAQERDEVSGLVSGLMRTSVGHQDARPEAPAASGPAPVSLVETAPEDSSPRGTLASSGDGFEEGLTVATVVESALCALRNCIAFMPPAEQNPAPLAQPEPLVWVSKWVDYSNKFGFGYQLSSRRVAVLFNDGTHMALSANRKTVHYNPTSTKHFSFSVGAVPRALQPQLGILRYFASYMEQHLMKGGDLPSVEEVEVPAPPLLLQWVKTDQALLMLFSDGTVQVNFYGDHTKLILSGWEPLLVTFVARNRSACTYLASHLRQLGCSPDLRQRLRYALRLLRDRSPA
B2: Flag-Plk2 (protein)
chain: MELLRTITYQPAASTKMCEQALGKGCGADSKKKRPPQPPEESQPPQSQAQVPPAAPHHHHHHSHSGPEISRIIVDPTTGKRYCRGKVLGKGGFAKCYEMTDLTNNKVYAAKIIPHSRVAKPHQREKIDKEIELHRILHHKHVVQFYHYFEDKENIYILLEYCSRRSMAHILKARKVLTEPEVRYYLRQIVSGLKYLHEQEILHRDLKLGNFFINEAMELKVGDFGLAARLEPLEHRRRTICGTPNYLSPEVLNKQGHGCESDIWALGCVMYTMLLGRPPFETTNLKETYRCIREARYTMPSSLLAPAKHLIASMLSKNPEDRPSLDDIIRHDFFLQGFTPDRLSSSCCHTVPDFHLSSPAKNFFKKAAAALFGGKKDKARYIDTHNRVSKEDEDIYKLRHDLKKTSITQQPSKHRTDEELQPPTTTVARSGTPAVENKQQIGDAIRMIVRGTLGSCSSSSECLEDSTMGSVADTVARVLRGCLENMPEADCIPKEQLSTSFQWVTKWVDYSNKYGFGYQLSDHTVGVLFNNGAHMSLLPDKKTVHYYAELGQCSVFPATDAPEQFISQVTVLKYFSHYMEENLMDGGDLPSVTDIRRPRLYLLQWLKSDKALMMLFNDGTFQVNFYHDHTKIIICSQNEEYLLTYINEDRISTTFRLTTLLMSGCSSELKNRMEYALNMLLQRCN

Biological target: GST-PBIPtide-A6 [GST: P08515]

Protein	in vitro kinase assay of Flag immunoprecipitates, 32P incorporated into GST-PBIPtide-A6
B1	Plk1, but not Plk2 or Plk3, phosphorylates and binds to the T78 motif of PBIPtides
B2	Plk1, but not Plk2 or Plk3, phosphorylates and binds to the T78 motif of PBIPtides
